B1: sp¦O75607¦NPM3_HUMAN (protein, UniProt O75607 2-178, looked up)
Nucleoplasmin-3: AAGTAAALAFLSQESRTRAGGVGGLRVPAPVTMDSFFFGCELSGHTRSFTFKVEEEDDAEHVLALTMLCLTEGAKDECNVVEVVARNHDHQEIAVPVANLKLSCQPMLSLDDFQLQPPVTFRLKSGSGPVRITGRHQIVTMSNDVSEEESEEEEEDSDEEEVELCPILPAKKQGGRP
B2: sp¦P33176¦KINH_HUMAN (protein, UniProt P33176 2-963, looked up)
Kinesin-1 heavy chain: ADLAECNIKVMCRFRPLNESEVNRGDKYIAKFQGEDTVVIASKPYAFDRVFQSSTSQEQVYNDCAKKIVKDVLEGYNGTIFAYGQTSSGKTHTMEGKLHDPEGMGIIPRIVQDIFNYIYSMDENLEFHIKVSYFEIYLDKIRDLLDVSKTNLSVHEDKNRVPYVKGCTERFVCSPDEVMDTIDEGKSNRHVAVTNMNEHSSRSHSIFLINVKQENTQTEQKLSGKLYLVDLAGSEKVSKTGAEGAVLDEAKNINKSLSALGNVISALAEGSTYVPYRDSKMTRILQDSLGGNCRTTIVICCSPSSYNESETKSTLLFGQRAKTIKNTVCVNVELTAEQWKKKYEKEKEKNKILRNTIQWLENELNRWRNGETVPIDEQFDKEKANLEAFTVDKDITLTNDKPATAIGVIGNFTDAERRKCEEEIAKLYKQLDDKDEEINQQSQLVEKLKTQMLDQEELLASTRRDQDNMQAELNRLQAENDASKEEVKEVLQALEELAVNYDQKSQEVEDKTKEYELLSDELNQKSATLASIDAELQKLKEMTNHQKKRAAEMMASLLKDLAEIGIAVGNNDVKQPEGTGMIDEEFTVARLYISKMKSEVKTMVKRCKQLESTQTESNKKMEENEKELAACQLRISQHEAKIKSLTEYLQNVEQKKRQLEESVDALSEELVQLRAQEKVHEMEKEHLNKVQTANEVKQAVEQQIQSHRETHQKQISSLRDEVEAKAKLITDLQDQNQKMMLEQERLRVEHEKLKATDQEKSRKLHELTVMQDRREQARQDLKGLEETVAKELQTLHNLRKLFVQDLATRVKKSAEIDSDDTGGSAAQKQKISFLENNLEQLTKVHKQLVRDNADLRCELPKLEKRLRATAERVKALESALKEAKENASRDRKRYQQEVDRIKEAVRSKNMARRGHSAQIAKPIRPGQHPAASPTHPSAIRGGGAFVQNSQPVAVRGGGGKQV
B3: sp¦Q9H0A0¦NAT10_HUMAN (protein, UniProt Q9H0A0 1-1025, looked up)
RNA cytidine acetyltransferase: MHRKKVDNRIRILIENGVAERQRSLFVVVGDRGKDQVVILHHMLSKATVKARPSVLWCYKKELGFSSHRKKRMRQLQKKIKNGTLNIKQDDPFELFIAATNIRYCYYNETHKILGNTFGMCVLQDFEALTPNLLARTVETVEGGGLVVILLRTMNSLKQLYTVTMDVHSRYRTEAHQDVVGRFNERFILSLASCKKCLVIDDQLNILPISSHVATMEALPPQTPDESLGPSDLELRELKESLQDTQPVGVLVDCCKTLDQAKAVLKFIEGISEKTLRSTVALTAARGRGKSAALGLAIAGAVAFGYSNIFVTSPSPDNLHTLFEFVFKGFDALQYQEHLDYEIIQSLNPEFNKAVIRVNVFREHRQTIQYIHPADAVKLGQAELVVIDEAAAIPLPLVKSLLGPYLVFMASTINGYEGTGRSLSLKLIQQLRQQSAQSQVSTTAENKTTTTARLASARTLYEVSLQESIRYAPGDAVEKWLNDLLCLDCLNITRIVSGCPLPEACELYYVNRDTLFCYHKASEVFLQRLMALYVASHYKNSPNDLQMLSDAPAHHLFCLLPPVPPTQNALPEVLAVIQVCLEGEISRQSILNSLSRGKKASGDLIPWTVSEQFQDPDFGGLSGGRVVRIAVHPDYQGMGYGSRALQLLQMYYEGRFPCLEEKVLETPQEIHTVSSEAVSLLEEVITPRKDLPPLLLKLNERPAERLDYLGVSYGLTPRLLKFWKRAGFVPVYLRQTPNDLTGEHSCIMLKTLTDEDEADQGGWLAAFWKDFRRRFLALLSYQFSTFSPSLALNIIQNRNMGKPAQPALSREELEALFLPYDLKRLEMYSRNMVDYHLIMDMIPAISRIYFLNQLGDLALSAAQSALLLGIGLQHKSVDQLEKEIELPSGQLMGLFNRIIRKVVKLFNEVQEKAIEEQMVAAKDVVMEPTMKTLSDDLDEAAKEFQEKHKKEVGKLKSMDLSEYIIRGDDEEWNEVLNKAGPNASIISLKSDKKRKLEAKQEPKQSKKLKNRETKNKKDMKLKRKK
B4: sp¦Q96HE7¦ERO1A_HUMAN (protein, UniProt Q96HE7 24-468, looked up)
ERO1-like protein alpha: EEQPPETAAQRCFCQVSGYLDDCTCDVETIDRFNNYRLFPRLQKLLESDYFRYYKVNLKRPCPFWNDISQCGRRDCAVKPCQSDEVPDGIKSASYKYSEEANNLIEECEQAERLGAVDESLSEETQKAVLQWTKHDDSSDNFCEADDIQSPEAEYVDLLLNPERYTGYKGPDAWKIWNVIYEENCFKPQTIKRPLNPLASGQGTSEENTFYSWLEGLCVEKRAFYRLISGLHASINVHLSARYLLQETWLEKKWGHNITEFQQRFDGILTEGEGPRRLKNLYFLYLIELRALSKVLPFFERPDFQLFTGNKIQDEENKMLLLEILHEIKSFPLHFDENSFFAGDKKEAHKLKEDFRLHFRNISRIMDCVGCFKCRLWGKLQTQGLGTALKILFSEKLIANMPESGPSYEFHLTRQEIVSLFNAFGRISTSVKELENFRNLLQNIH
B5: sp¦Q9UFN0¦NPS3A_HUMAN (protein, UniProt Q9UFN0 1-247, looked up)
Protein NipSnap homolog 3A: MLVLRSALTRALASRTLAPQMCSSFATGPRQYDGIFYEFRSYYLKPSKMNEFLENFEKNAHLRTAHSELVGYWSVEFGGRMNTVFHIWKYDNFAHRTEVRKALAKDKEWQEQFLIPNLALIDKQESEITYLVPWCKLEKPPKEGVYELATFQMKPGGPALWGDAFKRAVHAHVNLGYTKLVGVFHTEYGALNRVHVLWWNESADSRAAGRHKSHEDPRVVAAVRESVNYLVSQQNMLLIPTSFSPLK
B6: sp¦Q99496¦RING2_HUMAN (protein, UniProt Q99496 2-336, looked up)
E3 ubiquitin-protein ligase …: SQAVQTNGTQPLSKTWELSLYELQRTPQEAITDGLEIVVSPRSLHSELMCPICLDMLKNTMTTKECLHRFCADCIITALRSGNKECPTCRKKLVSKRSLRPDPNFDALISKIYPSRDEYEAHQERVLARINKHNNQQALSHSIEEGLKIQAMNRLQRGKKQQIENGSGAEDNGDSSHCSNASTHSNQEAGPSNKRTKTSDDSGLELDNNNAAMAIDPVMDGASEIELVFRPHPTLMEKDDSAQTRYIKTSGNATVDHLSKYLAVRLALEELRSKGESNQMNLDTASEKQYTIYIATASGQFTVLNGSFSLELVSEKYWKVNKPMELYYAPTKEHK
B7: sp¦O75533¦SF3B1_HUMAN (protein, UniProt O75533 1-1304, looked up)
Splicing factor 3B subunit 1: MAKIAKTHEDIEAQIREIQGKKAALDEAQGVGLDSTGYYDQEIYGGSDSRFAGYVTSIAATELEDDDDDYSSSTSLLGQKKPGYHAPVALLNDIPQSTEQYDPFAEHRPPKIADREDEYKKHRRTMIISPERLDPFADGGKTPDPKMNARTYMDVMREQHLTKEEREIRQQLAEKAKAGELKVVNGAAASQPPSKRKRRWDQTADQTPGATPKKLSSWDQAETPGHTPSLRWDETPGRAKGSETPGATPGSKIWDPTPSHTPAGAATPGRGDTPGHATPGHGGATSSARKNRWDETPKTERDTPGHGSGWAETPRTDRGGDSIGETPTPGASKRKSRWDETPASQMGGSTPVLTPGKTPIGTPAMNMATPTPGHIMSMTPEQLQAWRWEREIDERNRPLSDEELDAMFPEGYKVLPPPAGYVPIRTPARKLTATPTPLGGMTGFHMQTEDRTMKSVNDQPSGNLPFLKPDDIQYFDKLLVDVDESTLSPEEQKERKIMKLLLKIKNGTPPMRKAALRQITDKAREFGAGPLFNQILPLLMSPTLEDQERHLLVKVIDRILYKLDDLVRPYVHKILVVIEPLLIDEDYYARVEGREIISNLAKAAGLATMISTMRPDIDNMDEYVRNTTARAFAVVASALGIPSLLPFLKAVCKSKKSWQARHTGIKIVQQIAILMGCAILPHLRSLVEIIEHGLVDEQQKVRTISALAIAALAEAATPYGIESFDSVLKPLWKGIRQHRGKGLAAFLKAIGYLIPLMDAEYANYYTREVMLILIREFQSPDEEMKKIVLKVVKQCCGTDGVEANYIKTEILPPFFKHFWQHRMALDRRNYRQLVDTTVELANKVGAAEIISRIVDDLKDEAEQYRKMVMETIEKIMGNLGAADIDHKLEEQLIDGILYAFQEQTTEDSVMLNGFGTVVNALGKRVKPYLPQICGTVLWRLNNKSAKVRQQAADLISRTAVVMKTCQEEKLMGHLGVVLYEYLGEEYPEVLGSILGALKAIVNVIGMHKMTPPIKDLLPRLTPILKNRHEKVQENCIDLVGRIADRGAEYVSAREWMRICFELLELLKAHKKAIRRATVNTFGYIAKAIGPHDVLATLLNNLKVQERQNRVCTTVAIAIVAETCSPFTVLPALMNEYRVPELNVQNGVLKSLSFLFEYIGEMGKDYIYAVTPLLEDALMDRDLVHRQTASAVVQHMSLGVYGFGCEDSLNHLLNYVWPNVFETSPHVIQAVMGALEGLRVAIGPCRMLQYCLQGLFHPARKVRDVYWKIYNSIYIGSQDALIAHYPRIYNDDKNTYIRYELDYIL
B8: sp¦P42167¦LAP2B_HUMAN (protein, UniProt P42167 1-454, looked up)
Lamina-associated polypeptide …: MPEFLEDPSVLTKDKLKSELVANNVTLPAGEQRKDVYVQLYLQHLTARNRPPLPAGTNSKGPPDFSSDEEREPTPVLGSGAAAAGRSRAAVGRKATKKTDKPRQEDKDDLDVTELTNEDLLDQLVKYGVNPGPIVGTTRKLYEKKLLKLREQGTESRSSTPLPTISSSAENTRQNGSNDSDRYSDNEEDSKIELKLEKREPLKGRAKTPVTLKQRRVEHNQSYSQAGITETEWTSGSSKGGPLQALTRESTRGSRRTPRKRVETSEHFRIDGPVISESTPIAETIMASSNESLVVNRVTGNFKHASPILPITEFSDIPRRAPKKPLTRAEVGEKTEERRVERDILKEMFPYEASTPTGISASCRRPIKGAAGRPLELSDFRMEESFSSKYVPKYVPLADVKSEKTKKGRSIPVWIKILLFVVVAVFLFLVYQAMETNQVNPFSNFLHVDPRKSN
B9: sp¦Q92990¦GLMN_HUMAN (protein, UniProt Q92990 2-594, looked up)
Glomulin: AVEELQSIIKRCQILEEQDFKEEDFGLFQLAGQRCIEEGHTDQLLEIIQNEKNKVIIKNMGWNLVGPVVRCLLCKDKEDSKRKVYFLIFDLLVKLCNPKELLLGLLELIEEPSGKQISQSILLLLQPLQTVIQKLHNKAYSIGLALSTLWNQLSLLPVPYSKEQIQMDDYGLCQCCKALIEFTKPFVEEVIDNKENSLENEKLKDELLKFCFKSLKCPLLTAQFFEQSEEGGNDPFRYFASEIIGFLSAIGHPFPKMIFNHGRKKRTWNYLEFEEEENKQLADSMASLAYLVFVQGIHIDQLPMVLSPLYLLQFNMGHIEVFLQRTEESVISKGLELLENSLLRIEDNSLLYQYLEIKSFLTVPQGLVKVMTLCPIETLRKKSLAMLQLYINKLDSQGKYTLFRCLLNTSNHSGVEAFIIQNIKNQIDMSLKRTRNNKWFTGPQLISLLDLVLFLPEGAETDLLQNSDRIMASLNLLRYLVIKDNENDNQTGLWTELGNIENNFLKPLHIGLNMSKAHYEAEIKNSQEAQKSKDLCSITVSGEEIPNMPPEMQLKVLHSALFTFDLIESVLARVEELIEIKTKSTSEENIGIK

system: human HL60 cells; assay: SWATH-MS proteomics, differential protein representation, akirin2 KO vs WT HL60 cells; assay type: cell-based; settings: SWATH-MS, akirin2 KO vs WT HL60 cells, under-represented in KO
How it was run: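 Differential representation compares akirin2 KO with WT HL60 across three biological replicates, 5 µg digest each, acquired by data-independent SWATH on a 120-min gradient. Library built from combined IDA runs searched with Paragon; proteins accepted at 1% FDR, with total-area-sum normalization.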

Row | Molecule | Fold Change | Log (Fold Change)
1 | B1 | 0.6936 | -0.1589
2 | B2 | 0.7087 | -0.1495
3 | B3 | 0.7033 | -0.1528
4 | B4 | 0.7045 | -0.1521
5 | B5 | 0.7109 | -0.1482
6 | B6 | 0.6992 | -0.1554
7 | B7 | 0.7121 | -0.1475
8 | B8 | 0.7013 | -0.1541

same assay, conditions: akirin2 KO vs WT HL60 cells; sheet "Under-represented in KO"

Row | Molecule | Fold Change | Log (Fold Change)
9 | B9 | 0.3264 | -0.4863

Source: article PMC8298264, “Function of cofactor Akirin2 in the regulation of gene expression in model human neutrophil-like HL60 cells” (Bioscience Reports, 2021)
